# B1: Junin virus (JUNV) Z protein (natural protein)
# chain: MGNCNGASKSNQPDSSRVTQPAAEFRRVAHSSLYGRYNCKCCWFADTNLITCNDHYLCLRCHQVMLRNSDLCNICWKPLPTTITVPVEPTAPPP
# Biological target: JUNV L protein VNN(1177–1179)AAA (Junin virus (JUNV))
# Assay: MST
binder,measurement,value
B1,Kd,914 nM
